Data: article PMC9129080, “Control of fruit softening and Ascorbic acid accumulation by manipulation of SlIMP3 in tomato” (Plant Biotechnology Journal, 2022)

Columns and labels:
[1] = substrate: O=P(O)(O)OC1O[C@@H](CO)[C@@H](O)[C@@H](O)[C@@H]1O; assay: phosphate release, malachite green; format: biochemical, Solanum lycopersicum; settings: 3.5 mM MgCl2, 50 mM Tris-Cl pH 7.0, 25 °C
[2] = substrate: O=P(O)(O)O[C@@H]1[C@@H](O)[C@H](O)[C@@H](O)[C@H](O)[C@@H]1O; assay: phosphate release, malachite green; format: biochemical, Solanum lycopersicum; settings: 3.5 mM MgCl2, 50 mM Tris-Cl pH 7.0, 25 °C

B1: SlIMP3 (Solanum lycopersicum) (protein)
chain: MAQNGSVEQFLDVAVEAAKKAGEIIREGFYKTKHVEHKGMVDLVTETDKACEDFIFNHLKQRFPSHKFIGEETTAACGNFELTDEPTWIVDPLDGTTNFVHGFPFVCVSIGLTIEKKPTVGVVYNPIIDELFTGIDGKGAFLNGKPIKVSSQSELVKALLATEAGTNRDKLVVDATTGRINSLLFKVRSLRMCGSCALNLCGVACGRLDLFYELEFGGPWDVAGGAVIVKEAGGFVFDPSGSEFDLTARRVAATNAHLKDAFIKALNE
notes: tag removal not mentioned
[1]
  Km: 290 µM
[2]
  Km: 280 µM
